The values below come from publication PMC4903074 (Molecular cell, 2015).

Assay [1] deals with T1, GST-RPN10 (residues 201–386), wild type (Arabidopsis thaliana, UniProt P55034 201-386).
T1 sequence (looked up): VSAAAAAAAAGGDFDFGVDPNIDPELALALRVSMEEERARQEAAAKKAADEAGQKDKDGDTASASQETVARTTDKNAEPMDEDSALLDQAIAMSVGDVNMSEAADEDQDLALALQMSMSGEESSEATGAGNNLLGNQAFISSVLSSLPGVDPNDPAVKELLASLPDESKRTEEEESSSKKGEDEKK
Briefly: pull-down.

For assay [2], the target named is T1, GST-RPN10 (residues 201–386), wild type. Put plainly: pull-down. The source holds these as a separate data set.

B1: His6-ATG8f (natural protein, Arabidopsis thaliana, UniProt Q8VYK7 1-117, looked up)
chain: MAKSSFKQEHDLEKRRAEAARIREKYPDRIPVIVEKAEKSDIPTIDKKKYLVPADLTVGQFVYVIRKRIKLSAEKAIFIFVDNVLPPAGALMSSVYEEKKDDDGFLYVTYSGENTFG
With B1, the binding result in assay [1] is given as “binds”.

B2: His6-ATG8e (natural protein, Arabidopsis thaliana, UniProt Q8S926 1-118, looked up)
chain: MNKGSIFKMDNDFEKRKAEAGRIREKYPDRIPVIVEKAEKSEVPNIDKKKYLVPSDLTVGQFVYVIRKRIKLSAEKAIFIFVDNVLPPTGELMSSVYEDKKDEDGFLYITYSGENTFG
B2: in assay [2], the dissociation constant (Kd) (in general, the concentration at which binding is half-saturated) is roughly 5.6 µM.
